From patent US20140302517A1 (SAMSUNG ELECTRONICS, published 2014)

B1: huAbF46-H4-A1 (IgG2 Fc) (antibody, V domains shown)
VH: EVQLVESGGGLVQPGGSLRLSCAASGFTFTDYYMSWVRQAPGKGLEWLGFIRNKANGYTTEYSASVKGRFTISRDNSKNTLYLQMNSLRAEDTAVYYCARDNWFAYWGQGTLVTVSS
VL: DIQMTQSPSSLSASVGDRVTITCKSSQSLLASGNQNNYLAWYQQKPGKAPKMLIIWASTRVSGVPSRFSGSGSGTDFTLTISSLQPEDFATYYCQQSYSRPYTFGQGTKVEIKR
notes: It was biotinylated in some assays; also called anti-c-Met antibody; biotinylated anti-c-Met antibody
B2: EW01 (antibody, human IgG1, lambda, V domains shown)
VH: EVQLLESGGGLVQPGGSLRLSCAVSGFTFSDYYMSWVRQAPGKGLEWVSGIYSSSSNIYYADSVKGRFTISRDNSENTLYLQMNSLRAEDTAVYYCAKALGNQENEPTSYSNGMDVWGQGTLVTVSS
VL: QSVLTQPPSASGTPGQRVTISCSGSSSNIGNNSVYWYQQLPGTAPKLLIYSDSQRPSGVPDRFSGSKSGTSASLAISGLRSEDEADYYCGTWDYSLNGYVFGGGTKLTVLG
notes: also called anti-idiotype antibody EW01; EW01 antibody
B3: EW02 (antibody, human IgG1, lambda, V domains shown)
VH: EVQLLESGGGLVQPGGSLRLSCAASGFTFSNYAMSWVRQAPGKGLEWVSSISSSGGNTYYADSVKGRFTISRDNSKNTLYLQMNSLGAEDTAVYYCAKYHSVFDYWGQGTLVTVSS
VL: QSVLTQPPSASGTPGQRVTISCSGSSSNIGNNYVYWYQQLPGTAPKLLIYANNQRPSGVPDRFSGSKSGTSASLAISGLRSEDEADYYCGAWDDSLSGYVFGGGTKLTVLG
notes: also called EW02 antibody

Tests used:
huAbF46-H4-A1 (IgG2 Fc) [1] = target: B1; test: bridging ELISA: plate coated with anti-c-Met antibody, anti-idiotype antibody, biotinylated anti-c-Met antibody as detector
Procedure: (§1) The antibodies prepared in Example 1 above were produced in 293 F cells (invitrogen), purified and quantified to adjust their concentration, and then used for the following tests. The quantification of the purified antibodies was performed using a Nano-drop machine, and numerals reflecting A280/A260 absorption values were used. The quantification results were confirmed again through SDA-PAGE procedures. […] After blocking, the plates were washed with a PBST (0.05% Tween20 in PBS) and then treated with the anti-idiotype antibodies prepared in example 1 at 10-fold serial dilution concentrations (10 μg/ml, 1 μg/ml, 0.1 μg/ml, and 0.01 μg/ml) starting from 10 μg/ml, respectively to react at a room temperature for one hour. After the reaction was complete, the plates were washed again with a microplate washer (Biotek ELx405, PBST).
(§2) For color development, the plates were treated with TMB (3,3,5,5-tetramethylbenzidine) which is a HRP substrate, and absorption was measured at 450 nm.

[2] = target: T1, c-Met protein (358-MT/CF, RND systems) (UniProt P08581 25-932); test: ELISA, 'Pre-existing Experiment (0.1% serum)': plate coated with c-Met protein; anti-c-Met antibody titrated 3-fold from 1 ug/ml in monkey serum diluted to 0.1%; Abs450
T1 construct: Bought reagent, known only by its catalogue number; also called antigen c-Met protein

EW02 = target: B3; test: sandwich ELISA: capture EW02 0.25 ug/ml; anti-c-Met antibody titrated 3-fold from 1 (ug/ml per paragraph 273, axis prints no unit) in 10% human serum; detector EW01-biotin 0.25 ug/ml, streptavidin-HRP; absorbance at 450 nm
Excerpt: Finally, the plates were washed with a washing solution (PBST (0.05% Tween20 in PBS)) to eliminate unreacted HRP and then, they were subject to color development using a TMB substrate to measure absorption at 450 nm.

EW01 = target: B2; test: sandwich ELISA: plate coated with EW01 0.25 ug/ml; anti-c-Met antibody titrated 3-fold from 1 ug/ml in cynomolgus monkey serum (10% per paragraph 268; the sheet's title prints 0.1% serum); detector biotinylated EW01 0.25 ug/ml, streptavidin-HRP; Abs450
Procedure: After the reaction of the detection antibody was over, the same washing procedures as above were carried out, and a HRP-streptavidin solution (BioLegend) was added thereto to react at a room temperature for one hour. After all the reactions were over, the plates were finally washed and treated with a TMB substrate for color development, and absorption was measured at 450 nm and analyzed.

huAbF46-H4-A1 (IgG2 Fc) [3] = target: B1; test: bridging ELISA: plate coated with anti-c-Met antibody 1 ug/ml; anti-idiotype antibody at 0.01 to 10 (ug/ml per paragraph 258, axis prints no unit); detection with biotinylated anti-c-Met antibody 200 ng/ml and avidin-HRP; absorbance at 450 nm
Procedure: as §1, §2

huAbF46-H4-A1 (IgG2 Fc) [4] = target: B1; test: SPR (Biacore)
[5] = target: T2, human c-Met/Fc fusion protein (R&D Systems) (human, UniProt P08581 25-932); test: ELISA, hybridoma culture on plates coated with human c-Met/Fc fusion protein
T2 construct: Bought; also called human c-Met/Fc protein; not shown: Fc part
Procedure: The antibody that remained unbound was removed by washing.
The hybridoma cell culture obtained in Reference Example 1.1.2 was added in an amount of 50 μL to each well of the plates and incubated for 1 hour. The cells remaining unreacted were washed out with a sufficient amount of Tris-buffered saline and Tween 20 (TBST). Goat anti-mouse IgG-horseradish peroxidase (HRP) was added to the plates and incubated for 1 hour at room temperature. The plates were washed with a sufficient amount of TBST, followed by reacting the peroxidase with a substrate (OPD). Absorbance at 450 nm was measured on an ELISA reader.

T1 sequence (P08581 25-932 limits assumed): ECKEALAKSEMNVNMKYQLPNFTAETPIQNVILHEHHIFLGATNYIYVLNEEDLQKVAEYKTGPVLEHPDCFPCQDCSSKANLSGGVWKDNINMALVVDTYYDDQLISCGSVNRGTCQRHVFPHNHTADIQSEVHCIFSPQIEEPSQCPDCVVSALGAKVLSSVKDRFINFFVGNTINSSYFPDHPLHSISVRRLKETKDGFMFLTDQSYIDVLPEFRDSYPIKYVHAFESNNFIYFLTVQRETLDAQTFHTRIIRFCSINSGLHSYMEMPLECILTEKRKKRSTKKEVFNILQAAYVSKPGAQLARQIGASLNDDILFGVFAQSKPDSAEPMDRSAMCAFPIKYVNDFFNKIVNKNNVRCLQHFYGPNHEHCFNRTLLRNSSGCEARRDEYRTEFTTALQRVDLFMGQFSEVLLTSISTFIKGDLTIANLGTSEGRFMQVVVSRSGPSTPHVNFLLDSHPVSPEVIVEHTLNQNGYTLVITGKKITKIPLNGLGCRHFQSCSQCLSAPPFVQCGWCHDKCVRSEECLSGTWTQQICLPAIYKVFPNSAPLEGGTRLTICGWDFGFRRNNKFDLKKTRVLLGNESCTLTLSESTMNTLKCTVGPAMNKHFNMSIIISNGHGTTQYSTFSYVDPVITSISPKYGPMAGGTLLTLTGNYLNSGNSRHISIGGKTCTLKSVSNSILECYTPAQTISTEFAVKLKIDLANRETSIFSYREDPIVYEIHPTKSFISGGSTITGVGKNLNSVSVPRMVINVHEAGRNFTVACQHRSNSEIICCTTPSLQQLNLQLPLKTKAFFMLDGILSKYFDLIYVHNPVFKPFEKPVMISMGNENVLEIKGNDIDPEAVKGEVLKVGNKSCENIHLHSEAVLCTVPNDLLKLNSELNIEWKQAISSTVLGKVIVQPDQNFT
T2 sequence (P08581 25-932 limits assumed): as above

Row | binding result (huAbF46-H4-A1 (IgG2 Fc) [1]) | Binder | other results
1 | binds | HAL 7-12 (antibody, human IgG1, lambda, V domains shown) VH: QLQLQESGGGLVQPGGSLRLSCAASGFTFSSYAMSWVRQAPGKGLEWVSAISGSGGSTYYADSVEGRFTISRDNSKNTLYLQMNSLRAEDTAVYYCAKERLEEPGFFDYWGQGTLVTVSS VL: QSALTQPASVSGSPGQSITISCTGTSSDVGGYNYVSWYQQHPGKAPKLMIYEVSNRPSGVSNRFSGSKSGNTASLTISGLQAEDEAHYYCSSYTTDNAWVFGGGTQLTVLG | –
2 | – | B1 | EC50 (read off the curve) [2]: ~0.03 µg/mL; binding result (EW02): binds; EC50 (read off the curve) (EW01): ~0.02 µg/mL
3 | binds | EW09 (antibody, human IgG1, lambda, V domains shown) VH: EVQLLESGGGLVQPGGSLRLSCAASGFTFSDYDMSWVRQAPGKGLEWVSSISYGGGSIYYADSVKGRFTISRDNSKNTLYLQMNSLRAEDTAMYYCARDAAYFDYWGQGTLVTVSS VL: not shown | –
4 | – | B2 | binding result (huAbF46-H4-A1 (IgG2 Fc) [3]): binds
5 | binds | EW16 (antibody, human IgG1, lambda, V domains shown) VH: EVQLLESGGGLVQPGGSLRLSCAASGFTFSDYYMSWVRLAPGKGLEWVSAISHSSGNTYYADSVKGRFTISRDNSKNTLYLQMNSLRAEDTAVYYCAKHLGAQSDEPDSSSNGMDVWGQGTLVTVSS VL: QSVLTQPPSASGTPGQRVTISCTGSSSNIGNNDVYWYQQLPGTAPKLLIYSDSNRPSGIPDRFSGSKSGTSASLAISGLRSEDEADYYCGTWDDSLNGYVFGGGTKLTVLG | –
6 | binds | EW06 (antibody, human IgG1, lambda, V domains shown) VH: EVQLLESGGGLVQPGGSLRLSCAASGFTFSGYDMSWVRQAPGKGLEWVSGISHGDGNIYYADSVKGRFTISRDNSKNTLYLQMNSLRAEDTAVYYCAKVGLLFVQEEPSYYNAMDVWGQGTLVTVSS VL: QSVLTQPPSASGTPGQRVTISCTGSSSNIGSNNVTWYQQLPGTAPKLLIYSNSHRPSGVPDRFSGSKSGTSASLAISGLRSEDGADYYCGTWDDSLNGYVFGGGTKLTVLG | –
7 | binds | EW03 (antibody, human IgG1, lambda, V domains shown) VH: EVQLLESGGGLVQPGGSLRLSCAASGFTFSDYDMSWVRQAPGKGLEWVSLISYGGSNTYYADSVKGRFTISRDNSKNTLYLQMNSLRAEDTAVYYCAKFRSEFNENEPSSYYGMDVWGQGTLVTVSS VL: QSVLTQPPSASGTPGQRVTISCSGSSSNIGNNDVTWYQQLPGTAPKLLIYSDSNRPSGVPDRFSGSKSGTSASLAISGLRSEDEADYYCGTWDSSLSAYVFGGGTKLTVLG | –
8 | binds | EW26 (antibody, human IgG1, lambda, V domains shown) VH: EVQLLESGGGLVQPGGSLRLSCAASGFTFSNYAMSWVRQAPGKGLEWVSAIYPGGGNTYYADSVKGRFTISRDNSKNTLYLQMNSLRAEDTAVYYCAKSLSTHSVDEPSSDNAMDVWGQGTLVTVSS VL: QSVLTQPPSASGTPGQRVTISCTGSSSNIGSNSVSWYQQLPGTAPKLLIYDDSNRPSGVPDRFSGSKSGTSASLAISGLRSEDEADYYCASWDYSLNAYVFGGGTKLTVLG | –
9 | binds | EW37 (antibody, human IgG1, lambda, V domains shown) VH: EVQLLESGGGLVQPGGSLRLSCAASGFTFSNYSMSWVRQAPGKGLEWVSSISSSGGNTYYADSVKGRFTISRDNSKNTLYLQMNSLRAEDTAVYYCARVHLYFDYWGQGTLVTVSS VL: QSVLTQPPSASGTPGQRVTISCSGSSSNIGSNSVNWYQQLPGTAPKLLIYSDSHRPSGVPDRFSGSKSGTSASLAISGLRSEDEADYYCGSWDDSLSGYVFGGGTKLTVLG | –
10 | binds | EW10 (antibody, human IgG1, lambda, V domains shown) VH: EVQLLESGGGLVQPGGSLRLSCAASGFTFSGYDMSWVRQAPGKGLEWVSGISYNGGSKYYADSVKGRFTISRDNSKNTLYLQMNSLRAEDTAVYYCAKYLLPVLEEPGYSADGMDVWGQGTLVTVSS VL: QSVLTQPPSASGTPGQRVTISCTGSSSNIGSNYVSWYRQLPGTAPKLLIYSDSNRPSGVPDRFSGSKSGTSASLAISGLRSEDEADYYCATWDASLSAYVFGGGTKLTVLG | –
11 | – | B3 | Kd (huAbF46-H4-A1 (IgG2 Fc) [4]): 38.4 nM; koff (huAbF46-H4-A1 (IgG2 Fc) [4]): 0.0032 s⁻¹; kon (huAbF46-H4-A1 (IgG2 Fc) [4]): 85000 M⁻¹ s⁻¹
12 | binds | HAL 8-7 (antibody, human IgG1, kappa, V domains shown) VH: not shown VL: AIQLTQSPLSLSVSAGEKVTMSCKSSQSLLNSGNQKNDLAWYQQKPGQRPKLLIYGASTRESGVPDRFTGSGSGTDFTLTISSVQAEDLAVYYCQNDHSYPLTFGAGTKLEIKR | –
13 | binds | HAL 7-2 (antibody, human IgG1, lambda, V domains shown) VH: QVQLVQSGAEVKKPGSSVKVSCKASGGTFSSYAISWVRQAPGQGLEWMGGIIPIFGTANYAQKFQGRVTITADESTSTAYMELSSLRSEDTAVYYCARDRNSYYEEPMYYFDYWGQGTLVTVSS VL: QAGLTQPPSVSVSPGQTASITCSGDKLGDRYVFWYQQKPGQAPVLVVHDDSDRPSGIPERFSGSNSGDTATLTISRVEAGDEADYYCQVWDSVNDHPVFGGGTKLTVLG | –
14 | binds | HAL 7-5 (antibody, human IgG1, lambda, V domains shown) VH: QVQLVQSGAEVKKPGASVKVSCKASGGTFSSYAISWVRQAPGQGLEWMGGIIPIFGTANYAQKFQGRVTITADESTSTAYMELSSLRSEDTAVYYCARDRNSYYEEPMYYFDYWGQGTLVTVSS VL: not shown | –
15 | binds | EW28 (antibody, human IgG1, lambda, V domains shown) VH: EVQLLESGGGLVQTGGSLRLSCAVSGFTFSDYAMSWVRQAPGKGLEWVSAISSGDGNTYYADSVKGRFTISRDNSKNTLYLQMNSLRAEDTAVYYCARYLGTTSDEPASYSNGMDVWGQGTLVTVSS VL: not shown | –
16 | – | AbF46 (antibody, V domains shown, Mouse monoclonal antibody from a hybridoma; tested as hybridoma culture supernatant in the selection ELISA; also called mouse antibody AbF46; monoclonal antibody of hybridoma KCLRF-BP-00220) VH: EVKLVESGGGLVQPGGSLRLSCATSGFTFTDYYMSWVRQPPGKALEWLGFIRNKANGYTTEYSASVKGRFTISRDNSQSILYLQMDTLRAEDSATYYCARDNWFAYWGQGTLVTVSA VL: DILMTQSPSSLTVSAGEKVTMSCKSSQSLLASGNQNNYLAWHQQKPGRSPKMLIIWASTRVSGVPDRFIGSGSGTDFTLTINSVQAEDLAVYYCQQSYSAPLTFGAGTKLELK | binding result [5]: binds
17 | binds | HAL 7-7 (antibody, human IgG1, lambda, V domains shown) VH: not shown VL: QSVLTQPPSVSMAPGQTARITCGGNNIATKGVHWYQQKAGQAPVLVVYDDSGRPSGIPDRFSGSKSGNTATLTISRVEAGDEADYYCQLWDGRSDQVLFGGGTKLTVLG | –
